From patent US20250277196A1, “EPSPS MUTANTS AND METHOD OF ITS USES” (CROPEDIT BIOTECHNOLOGY INC., priority 2021, published 2025)

B1: 1-552: rice EPSPS with G172A, P177S, K399N, V403A and T466S mutations (protein)
chain: MAAKAEEIVLQPIREISGAVQLPGSKSLSNRILLLSALSEGTTVVDNLLNSEDVHYMLEALKALGLSVEADKVAKRAVVVGCGGKFPVEKDAKEEVQLFLGNAATAMRSLTAAVTAAGGNATYVLDGVPRMRERPIGDLVVGLKQLGADVDCFLGTECPPVRVKGIGGLPGGKVKLSGSISSQYLSALLMAAPLALGDVEIEIIDKLISIPYVEMTLRLMERFGVKAEHSDSWDRFYIKGGQKYKSPGNAYVEGDASSASYFLAGAAITGGTVTVQGCGTTSLQGDVKFAEVLEMMGAKVTWTDTSVTVTGPPREPYGKKHLKAVDVNMNNMPDAAMTLAVVALFADGPTAIRDVASWRVKETERMVAIRTELTKLGASVEEGPDYCIITPPEKLNITAIDTYDDHRMAMAFSLAACADVPVTIRDPGCTRKTFPNYFDVLSTFVRN
modifications: This sequence is synthesized in lab.
notes: rice EPSPS with G172A, P177S, K399N, V403A and T466S mutations
B2: 1-599: rice EPSPS with A73G, L134F, G172A, P177S, G265V, S374R and V403A mutations (protein)
chain: MAAKGEEIVLQPIREISGAVQLPGSKSLSNRILLLSALSEGTTVVDNLLNSEDVHYMLEALKALGFSVEADKVAKRAVVVGCGGKFPVEKDAKEEVQLFLGNAATAMRSLTAAVTAAGGNATYVLDGVPRMRERPIGDLVVGLKQLGADVDCFLGTECPPVRVKGIGGLPGGKVKLSGSISSQYLSALLMAAPLALVDVEIEIIDKLISIPYVEMTLRLMERFGVKAEHSDSWDRFYIKGGQKYKSPGNAYVEGDASSASYFLAGAAITGGTVTVQGCGTTSLQGDVKFAEVLEMMGAKVTWTDTRVTVTGPPREPYGKKHLKAVDVNMNKMPDAAMTLAVVALFADGPTAIRDVASWRVKETERMVAIRTELTKLGASVEEGPDYCIITPPEKLNITAIDTYDDHRMAMAFSLAACADVPVTIRDPGCTRKTFPNYFDVLSTFVRN
modifications: This sequence is synthesized in lab.
notes: rice EPSPS with A73G, L134F, G172A, P177S, G265V, S374R and V403A mutations
B3: SEQ ID NO:19: rice EPSPS with A73K, D114H, V136M, K161E, G172A, P177S, A260T and V403A mutations; sample code not printed (protein)
chain: MAAKKEEIVLQPIREISGAVQLPGSKSLSNRILLLSALSEGTTVVHNLLNSEDVHYMLEALKALGLSMEADKVAKRAVVVGCGGKFPVEKDAEEEVQLFLGNAATAMRSLTAAVTAAGGNATYVLDGVPRMRERPIGDLVVGLKQLGADVDCFLGTECPPVRVKGIGGLPGGKVKLSGSISSQYLSALLMATPLALGDVEIEIIDKLISIPYVEMTLRLMERFGVKAEHSDSWDRFYIKGGQKYKSPGNAYVEGDASSASYFLAGAAITGGTVTVQGCGTTSLQGDVKFAEVLEMMGAKVTWTDTSVTVTGPPREPYGKKHLKAVDVNMNKMPDAAMTLAVVALFADGPTAIRDVASWRVKETERMVAIRTELTKLGASVEEGPDYCIITPPEKLNITAIDTYDDHRMAMAFSLAACADVPVTIRDPGCTRKTFPNYFDVLSTFVRN
modifications: This sequence is synthesized in lab.
B4: 2-5: rice EPSPS with E163K, G172A, P177S, A216V, L253M, H389R and V403A mutations (protein)
chain: MAAKAEEIVLQPIREISGAVQLPGSKSLSNRILLLSALSEGTTVVDNLLNSEDVHYMLEALKALGLSVEADKVAKRAVVVGCGGKFPVEKDAKEKVQLFLGNAATAMRSLTAAVTAAGGNATYVLDGVPRMRERPIGDLVVGLKQLGVDVDCFLGTECPPVRVKGIGGLPGGKVKLSGSISSQYMSALLMAAPLALGDVEIEIIDKLISIPYVEMTLRLMERFGVKAEHSDSWDRFYIKGGQKYKSPGNAYVEGDASSASYFLAGAAITGGTVTVQGCGTTSLQGDVKFAEVLEMMGAKVTWTDTSVTVTGPPREPYGKKRLKAVDVNMNKMPDAAMTLAVVALFADGPTAIRDVASWRVKETERMVAIRTELTKLGASVEEGPDYCIITPPEKLNITAIDTYDDHRMAMAFSLAACADVPVTIRDPGCTRKTFPNYFDVLSTFVRN
modifications: This sequence is synthesized in lab.
notes: rice EPSPS with E163K, G172A, P177S, A216V, L253M, H389R and V403A mutations
B5: 2-46: rice EPSPS with G172A, P177S, N246D and V403A mutations (protein)
chain: MAAKAEEIVLQPIREISGAVQLPGSKSLSNRILLLSALSEGTTVVDNLLNSEDVHYMLEALKALGLSVEADKVAKRAVVVGCGGKFPVEKDAKEEVQLFLGNAATAMRSLTAAVTAAGGNATYVLDGVPRMRERPIGDLVVGLKQLGADVDCFLGTECPPVRVKGIGGLPGGKVKLSGSISSQYLSALLMAAPLALGDVEIEIIDKLISIPYVEMTLRLMERFGVKAEHSDSWDRFYIKGGQKYKSPGDAYVEGDASSASYFLAGAAITGGTVTVQGCGTTSLQGDVKFAEVLEMMGAKVTWTDTSVTVTGPPREPYGKKHLKAVDVNMNKMPDAAMTLAVVALFADGPTAIRDVASWRVKETERMVAIRTELTKLGASVEEGPDYCIITPPEKLNITAIDTYDDHRMAMAFSLAACADVPVTIRDPGCTRKTFPNYFDVLSTFVRN
modifications: This sequence is synthesized in lab.
notes: rice EPSPS with G172A, P177S, N246D and V403A mutations
B6: 2-47: rice EPSPS with G172A, M175A, P177S, M258L, K356E, V403A and F512I mutations (protein)
chain: MAAKAEEIVLQPIREISGAVQLPGSKSLSNRILLLSALSEGTTVVDNLLNSEDVHYMLEALKALGLSVEADKVAKRAVVVGCGGKFPVEKDAKEEVQLFLGNAATAARSLTAAVTAAGGNATYVLDGVPRMRERPIGDLVVGLKQLGADVDCFLGTECPPVRVKGIGGLPGGKVKLSGSISSQYLSALLLAAPLALGDVEIEIIDKLISIPYVEMTLRLMERFGVKAEHSDSWDRFYIKGGQKYKSPGNAYVEGDASSASYFLAGAAITGGTVTVQGCGTTSLQGDVEFAEVLEMMGAKVTWTDTSVTVTGPPREPYGKKHLKAVDVNMNKMPDAAMTLAVVALFADGPTAIRDVASWRVKETERMVAIRTELTKLGASVEEGPDYCIITPPEKLNITAIDTYDDHRMAMAFSLAACADVPVTIRDPGCTRKTFPNYFDVLSTIVRN
modifications: This sequence is synthesized in lab.
notes: rice EPSPS with G172A, M175A, P177S, M258L, K356E, V403A and F512I mutations
B7: SEQ ID NO:23: rice EPSPS with A73S, G172A, P177S, L214F and V403A mutations; sample code not printed (protein)
chain: MAAKSEEIVLQPIREISGAVQLPGSKSLSNRILLLSALSEGTTVVDNLLNSEDVHYMLEALKALGLSVEADKVAKRAVVVGCGGKFPVEKDAKEEVQLFLGNAATAMRSLTAAVTAAGGNATYVLDGVPRMRERPIGDLVVGLKQFGADVDCFLGTECPPVRVKGIGGLPGGKVKLSGSISSQYLSALLMAAPLALGDVEIEIIDKLISIPYVEMTLRLMERFGVKAEHSDSWDRFYIKGGQKYKSPGNAYVEGDASSASYFLAGAAITGGTVTVQGCGTTSLQGDVKFAEVLEMMGAKVTWTDTSVTVTGPPREPYGKKHLKAVDVNMNKMPDAAMTLAVVALFADGPTAIRDVASWRVKETERMVAIRTELTKLGASVEEGPDYCIITPPEKLNITAIDTYDDHRMAMAFSLAACADVPVTIRDPGCTRKTFPNYFDVLSTFVRN
modifications: This sequence is synthesized in lab.

What follows are molecules tested on Escherichia coli DH5α with EPSPS gene knocked out (assay: Resistance test of rice EPSPS mutants from error-prone PCR on OsGPV: colony growth on medium with 0, 100 mM and 125 mM glyphosate (FIG. 7)). Conditions: 125 mM glyphosate pressure, FIG. 7.
Format: cell-based
From the text: In order to further improve the glyphosate resistance and develop highly resistant rice EPSPS mutants that can meet commercial production requirements, we used OsGPV as a template to perform random mutations, with high-concentration glyphosate screening, and to identify EPSPS mutant that can improve the glyphosate resistance.
We used OsGPV(SEQ ID NO:6) as a template to perform error-prone PCR. (With GeneMorph II Random Mutagenesis Kit, #200550, Agilent Technologies).
a) The recovered product was digested with EcoRI and SbfI, and then ligated to the pKED2 vector after the same double digestion with T4 DNA ligase to obtain the ligation product to obtain the vector carrying the rice EPSPS gene mutant.
b) Transformed the above vector into Escherichia coli DH5α with EPSPS gene knocked out. The transformation steps were as follows: add the above ligation product to 50 μl E. coli DH5α competent cells with EPSPS gene knocked out, mix well and incubate on ice for 30 min, then after a heat shock at 42° C. for 90 s, immediately place it in an ice bath on ice for 2 min after taking it out. After the ice bath, add 500 μl of LB liquid medium and resuscitate at 37° C. at 180 r/min for 45 min. The transformed Escherichia coli was a mutant library expressing rice EPSPS mutant genes obtained on the template basis of OsGPV.
5) Centrifuged the transformed product obtained above at 3000 rpm for 5 min, discarded the supernatant, then resuspended it in 1 ml M9 liquid medium, added 200 μl M9 liquid medium to resuspend and inoculated it on an M9 plate containing 75 mM glyphosate. Incubated at 37 degrees for 24 hours.
Pick and saved the single colonies grown in the above screening plates, and conduct further resistance identification and sequencing
ii. Resistance test of rice mutants. In this example, the wild-type rice EPSPS gene OsWT, the most widely used commercial glyphosate-resistant gene CP4EPSPS, the rice mutantOsTIPS, which had the same mutation type with commercial glyphosate-resistant corn GA21, and the rice mutant OsGPV with the highly glyphosate-resistant rice EPSPS mutant gene obtained in this study were transformed as control, and the newly obtained rice EPSPS mutants were transformed as the experimental group, and the glyphosate resistance among the control and the mutants were compared. The monoclonal bacteria of the control group and the experimental group were respectively inoculated into a medium containing 0, 100 mM and 125 mM glyphosate, and the growth of colonies in each group was observed.

**Q.** How did the “colony growth status compared with OsGPV” value turn out when B1 was run?
**A.** significantly higher than OsGPV

**Q.** With B2 as the molecule, how does the “colony growth status compared with OsGPV” value read?
**A.** significantly higher than OsGPV

**Q.** Which “colony growth status compared with OsGPV” value does the source give for B3 here?
**A.** significantly higher than OsGPV

**Q.** B4 was tested. Which “colony growth status compared with OsGPV” value did it give?
**A.** significantly higher than OsGPV

**Q.** B5 was tested. Which “colony growth status compared with OsGPV” value did it give?
**A.** significantly higher than OsGPV

**Q.** Which “colony growth status compared with OsGPV” value does the source give for B6 here?
**A.** significantly higher than OsGPV

**Q.** For B7, which “colony growth status compared with OsGPV” value is on record?
**A.** significantly higher than OsGPV
